# Data taken from the supplement of paper PMC9170038.
# System: MS2 coat protein
# Assay: apparent KD of MS2 coat protein; designed switch direction (-1 OFF switch, 1 ON switch): -1; higher = weaker reporter binding
# Outline: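 Apparent KD, taken as the median over clusters for each design, was obtained by curve-fitting normalised cluster fluorescence. Designed RNA switches had been transcribed on Illumina chips by stalled E. coli RNA polymerase and titrated with SNAP-549-labelled MS2 coat protein, doubling from 0.7 or 1.5 nM to 3 µM.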
# [1] = input ligand: microRNA oligo, concentration not stated
# [2] = Eterna round: R95, input ligand: microRNA oligo, concentration not stated
# [3] = Eterna round: R95, input ligand: FMN 200 uM
# [4] = Eterna round: R95, input ligand: none
Sequence,apparent KD of MS2 coat protein (input ligand: FMN 200 uM) [µM],apparent KD of MS2 coat protein [1] [µM],apparent KD of MS2 coat protein (input ligand: none) [µM],apparent KD of MS2 coat protein [2] [µM],apparent KD of MS2 coat protein [3] [µM],apparent KD of MS2 coat protein [4] [µM]
"UUUGUUUAUGUAGGAUAUGCCUGGCGUGCCUUUGCAGAAGGACAUGAGGAUCACCCAUGUAACAUGAGGCUCACCCAUGUCGCU [salish99_ExNG1_r04_111] (Eterna round: R96, puzzle: Exclusion NG 1)",0.24,0.18,0.292,,,
"AGCUUUUUGCUCGUCUUAUACAUGAGGAUCACCCAUGUAUUGGACCACAUCGAUAGAUGUGGACCAAGAAGCAUGGU [Omdei Mir OFFv1 C3] (Eterna round: R97, puzzle: Sensor, turn-off variant 1)",0.0468,,0.0452,,,
"CAUUAUUAUCGAGGAUAUCCUAUUGAAAUUCUGGGAGAAGGCGGACUCAACAUGAGGAUCACCCAUGUGAGACGGGUGCUAGGG [Ex NG1 #26] (Eterna round: R96, puzzle: Exclusion NG 1)",,0.0196,,,,
"GCAGACGUAGUGAGGAUAUGCUCUACCUCGGUAGAGCAGAAGGCACAUGAGGAUCACCCAUGUGGUUCCUCAUC [Omei Ex4B B19] (Eterna round: R97, puzzle: Brourd's mod of Exclusion 4)",0.054,,0.0156,,,
"GCACGGAGUGUAGGAUAUCUGUGCGAUUAGCUCAGAGAAGGACACAUGAGGAUCACCCAUGUGUACCUCAACACUAAUCCGUGC [Eli exng1 - 076] (Eterna round: R96, puzzle: Exclusion NG 1)",0.0105,0.00888,0.0101,,,
GUGUAGAUAGGAUAUGCAUAGAGCUUACGAAAGUAGGCUCUACAUGAGGAUCACCCAUGUAGAAGGGUCUACAC [Dot plot directed A v15] (puzzle: Exclusion 2),,,,0.025,,
UAGGAGUCAGGAUAUGCGAGAGAUUGAAGUAUGGGAUGUGAGCAGAAGGGACAUGAGGAUCACCCAUGUAUGGA [JR_Exclu4_Sub093] (puzzle: Exclusion 4),,,,0.146,,
"CUAAUAGCAGCAGGAUAUCUCACAUGAGGAUCACCCAUGUGGGACCGCCACCUCGUGUGUAAAGAAGAGAAGGGCUCGCACUCC [Eternabot solution 6] (Eterna round: R96, puzzle: Exclusion NG 2)",0.0376,0.0128,0.0261,,,
CUGGUCCGAGGAUAUAUUAUGUGAAACAUGAGGAUCACCCAUGUAAUAUGAUGGAUGAAAAUAGAAGGCGGACUAG [Mat - Exclusion 5 - JL mod - D30] (puzzle: Exclusion 5),,,,0.0435,0.0362,0.061
"UAAAGUAUAUAGGAUAUCUAGCUGGUAACAGCUAGAGAAGGAUGUACAUGAGGAUCACCCAUGUAAAUCAUGAA [Ex6/16-A2] (Eterna round: R97, puzzle: Exclusion 6)",0.0208,,0.0173,,,
AGUGCGUAUGUGAGGAUAUGCUGGUCCUUGGCUCGGCAGAAGGCACAUGAGGAUCACCCAUGUGGUGUCGUACG [salish99_Bmod_ex4_065] (puzzle: Brourd's mod of Exclusion 4),,,,0.0488,,
"GUAGAGUCAGGAUAUACAAGAUCGAAAGAUCAAAGAUCCAUACAUGAGGAUCACCCAUGUAGAAGGGACUCUAC [Eli x2 4.10] (Eterna round: R97, puzzle: Exclusion 2)",0.0735,,0.0224,,,
"AAACCUAAUGUUAGGAUAUGCUUCGGGCUUCCGCUGCAGAAGGAACAUGAGGAUCACCCAUGUCAAAUAAAAUC [JL-BMX4-4.39 ViennaUCT mod] (Eterna round: R97, puzzle: Brourd's mod of Exclusion 4)",0.0818,,0.0176,,,
"CUAGAUCAUUGGAUCUAGUACAUGAGGAUCACCCAUGUGACGAGUUACAUGUUAUAUAAGCUUUUUGCUCGUCAUUU [AK 1] (puzzle: Sensor v3, turn-off variant 1)",,,,0.0811,0.0634,0.0863
"AUGCUCCGUGUAGGAUAUCGCCGUAUUAUUCGGCGAGAAGGACAUGAGGAUCACCCAUGUAUGUUAUUAUCACGUGUGGCGCGC [Design 47] (Eterna round: R96, puzzle: Exclusion NG 1)",0.0418,0.0136,0.0218,,,
UGGGUUGUUGUGAGGAUAUACUGUUUGUUUUGUUUGUAGAAGGUACAUGAGGAUCACCCAUGUUGGUUGUGGUU [JR_BME4_Sub031] (puzzle: Brourd's mod of Exclusion 4),,,,0.204,,
"UAAUUAAUUAAUAAAUAAUACAUGAGGAUCACCCAUGUAGAUCCUACAUACAAUUUAAGUAGCUCGUCUUAUUAUUA [Sensor-V1 #61] (Eterna round: R97, puzzle: Sensor, turn-off variant 1)",0.2,,0.255,,,

Sequence,apparent KD of MS2 coat protein (input ligand: FMN 200 uM) [µM],apparent KD of MS2 coat protein [1] [µM],apparent KD of MS2 coat protein (input ligand: none) [µM],apparent KD of MS2 coat protein [2] [µM],apparent KD of MS2 coat protein [3] [µM],apparent KD of MS2 coat protein [4] [µM]
AUAGUAGAAGUGAGGAUAUCGUAGAUUUUUUGAAACGAGAAGGCACAUGAGGAUCACCCAUGUAAGAUGGAGGU [JR_BMOE4_Sub052] (puzzle: Brourd's mod of Exclusion 4),,,,0.219,0.236,0.319
UAUAAAAUAUAGGAUAUCGAAUAUAUUAUUUAACGAGAAGGAUGAACAUGAGGAUCACCCAUGUGGUAUCAUGG [Mat - Exclusion 6 - JL Mod - D37] (puzzle: Exclusion 6),,,,0.255,0.199,0.415
"UAUCAACAUGAGGAUCACCCAUGUGAGGAUAUCAAAACCAGAGCGGAUCUCUGGCCCAUGAGAAGGUACAUGGU [ElNandoxlusion 6 - Jieux - Exclusion 1] (Eterna round: R97, puzzle: Exclusion 1)",0.111,,0.0223,,,
"GCAGCUUAGUUAACAGACUGUUACAUGAGGAUCACCCAUGUGCAGGAUAUGGUCUGGAUUACAGGCCAGAAGGGUACAGGCUGC [Eli exng3 - 017] (Eterna round: R96, puzzle: Exclusion NG 3)",0.0108,0.0066,0.0134,,,
"AGAGUGCUGCGAGGAUAUACAUGAGGAUCACCCAUGUUUACCUGUGAGGCAAAGCCUCACAGGUAGUAGAAGGCGCAGUACUCA [Mat - Exclusion NG 2 - Mod of JL - D43] (Eterna round: R96, puzzle: Exclusion NG 2)",0.0146,0.0143,0.0123,,,
"UAAUGCAAGCAAAGAUCUUACAUGAGGAUCACCCAUGUGCUCGUCUUAUAAAGUACUAUCACGAAAGUGAUAGUACU [Mat - Sensor v3 - turn-off var 1 - Eli Mod - D92] (puzzle: Sensor v3, turn-off variant 1)",,,,0.129,0.0315,0.0252
"GUCAGCUCGUCAGGAUAUACAUGCGUGCUUCGGCACGAAUUUAAGAUCACAUGAGGAUCACCCAUGUAGAAGGGACGAGCUGAC [ENG2/3-B1] (Eterna round: R96, puzzle: Exclusion NG 2)",0.741,0.515,0.534,,,
"AGCUGUGGCCGAGGAUAUCUGAAACUCAAAACCGAAAUAUAAUCGGACAUGAGGAUCACCCAUGUAGAGAAGGCGGUCUCAGCA [Eli eng2 - 079] (Eterna round: R96, puzzle: Exclusion NG 2)",,0.126,,,,
GCAUGUUAUGUCAGGAUAUACCUAUGGAUACAUAGGUAGAAGGGACAUGAGGAUCACCCAUGUCCUAACCAUGC [Fiskers BMX 4 - 22] (puzzle: Brourd's mod of Exclusion 4),,,,0.0114,,
"CUAAUACAUCAGGAUAUGUGUCGUGAUAGCGACACAGAAGGGAUGACAUGAGGAUCACCCAUGUCAAAGGGUGA [eternacac ex6r4 sub23] (Eterna round: R97, puzzle: Exclusion 6)",0.388,,0.519,,,
"GCUGCGCGCUGUCGGGCGUCUGGUCUUGGAGGGAUAGACACAUGAGGAUCACCCAUGUUUCGGGUGUUCUUUCUAUA [JR_Sensorv2_tov2_Sub1512] (Eterna round: R96, puzzle: Sensor v2, turn-off variant 2)",0.187,0.118,0.183,,,
GAUUGACAUGAGGAUCACCCAUGUGAGGAUAUCGGCUGGACCGUGUUGGCUUGCUUCUCGAGAAGGCGCAUAGG [Exclusion 1 V51] (puzzle: Exclusion 1),,,,0.0339,0.0327,0.036
"ACUUACUGAGGAUAUACAUAGAUUUACAUGAGGAUCACCCAUGUUCCUCUAAGUAUAUAUGUAGAAGGCAGAAGAG [Mat - Exclusion 5 - JL Mod - D40] (Eterna round: R97, puzzle: Exclusion 5)",0.172,,0.145,,,
UUUUAACAUGAGGAUCACCCAUGUGAGGAUAUCGAAAUUUAUAUUAAUAUUAUUAAAACGAGAAGGCACAUUUU [JMF 35] (puzzle: Exclusion 1),,,,0.0629,,
"UUGACGUCGUCAGGAUAUAGUUUUAAUGUCAUGCGUAUGUUCUUACAUGAGGAUCACCCAUGUCGCUAGAAGGGACUAAAGAUU [JR_ExcNG2_Sub011] (Eterna round: R96, puzzle: Exclusion NG 2)",0.0276,0.0235,0.0347,,,
"CCAAGCUUGUUCAUUAACCACAUGAGGAUCACCCAUGUCUUGGCAAUUAUGACCUGCCCGUCAGGUGCUCGUCUUAU [Sensor-V1 #36] (Eterna round: R97, puzzle: Sensor, turn-off variant 1)",0.045,,0.0481,,,
